Where a SMILES comes first, the peptide text is derived from it. Bridges are numbered along the chain shown (N, C = ends). Where no end group is shown, it is not given here. [ ]: non-standard residue; d: D form. The star is where a group is joined. CH3O(CH2CH2O)11CH2CH2CO = COCCOCCOCCOCCOCCOCCOCCOCCOCCOCCOCCOCCC(=O)*; PEG2K = PEG2K (polydispersed); Tle = CC(C)(C)[C@H](N)C(=O)O; PEG1K = polydispersed PEG1K
Biological target: Recombinant human NEP (Homo sapiens, UniProt P08473)
Assay: in vitro NEP cleavage assay (disappearance of non-cleaved CNP variant)
Experimental: To determine the effects of amino acid substitutions, amino acid extensions, backbone modifications, side chain modifications and PEGylation on the susceptibility of CNP variants to neutral endopeptidase (NEP) cleavage, peptide cleavage assays were carried out using an in vitro assay that monitored disappearance of the non-cleaved CNP variant.
Recombinant human NEP (1 ug/mL final concentration) was added to 100 uM CNP variant diluted in 0.1 M Tris, pH 7. The reaction mixture was incubated at 37° C. for various periods of time, and the reaction was quenched with EDTA (10 mM final) followed by heat denaturation. The reaction mixture was reduced and then the reaction products were analyzed using HPLC and mass spectroscopy. The half-life of the CNP variant was calculated based on the disappearance of intact CNP variant over time.

Chain of Recombinant human NEP (P08473 whole entry): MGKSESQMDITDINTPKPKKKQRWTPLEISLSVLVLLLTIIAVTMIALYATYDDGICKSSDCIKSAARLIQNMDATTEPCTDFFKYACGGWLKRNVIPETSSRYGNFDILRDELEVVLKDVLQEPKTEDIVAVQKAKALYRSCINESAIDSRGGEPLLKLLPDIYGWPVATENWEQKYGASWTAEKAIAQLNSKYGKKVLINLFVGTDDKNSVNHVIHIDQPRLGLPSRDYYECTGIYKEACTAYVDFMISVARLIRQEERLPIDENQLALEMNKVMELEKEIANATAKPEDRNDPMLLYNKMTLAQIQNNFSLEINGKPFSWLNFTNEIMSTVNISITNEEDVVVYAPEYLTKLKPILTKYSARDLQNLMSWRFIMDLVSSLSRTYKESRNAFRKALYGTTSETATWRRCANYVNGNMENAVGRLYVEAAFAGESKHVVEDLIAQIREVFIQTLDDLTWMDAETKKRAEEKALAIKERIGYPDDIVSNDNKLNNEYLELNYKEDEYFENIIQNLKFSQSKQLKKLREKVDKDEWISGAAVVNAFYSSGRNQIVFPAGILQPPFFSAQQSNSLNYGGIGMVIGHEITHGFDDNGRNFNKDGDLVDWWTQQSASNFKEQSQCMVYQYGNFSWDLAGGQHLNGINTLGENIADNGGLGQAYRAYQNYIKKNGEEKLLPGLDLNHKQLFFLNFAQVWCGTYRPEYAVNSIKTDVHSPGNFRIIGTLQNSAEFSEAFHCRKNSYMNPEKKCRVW

CC[C@H](C)[C@@H]1NC(=O)[C@H](CCCNC(=N)N)NC(=O)[C@H](CC(=O)O)NC(=O)[C@H](CC(C)C)NC(=O)[C@H](CCCCN)NC(=O)[C@H](CC(C)C)NC(=O)CNC(=O)[C@H](Cc2ccccc2)NC(=O)[C@@H](NC(=O)CNC(=O)[C@H](CCCCN)NC(=O)[C@H](CO)NC(=O)[C@H](CC(C)C)NC(=O)CNC(=O)CCOCCOCCOCCOCCOCCOCCOCCOCCOCCOCCOCCOCCOCCOCCOCCOCCOCCOCCOCCOCCOCCOCCOCCOC)CSSC[C@@H](C(=O)O)NC(=O)CNC(=O)[C@H](CC(C)C)NC(=O)CNC(=O)[C@H](CO)NC(=O)[C@H](CCSC)NC(=O)[C@H](CO)NC(=O)CNC1=O [PEO24-CNP22]
resistance to NEP cleavage (in words): resistant to NEP degradation over the assay period of 160 minutes
NEP Cleavage (t1/2, min) (100 uM peptide, 1 ug/mL NEP, 0.1 M Tris pH 7, 37° C., adjusted t1/2, CNP22 normalized to 80 min): >>160 min

PEG2K-CNP22(K4G): CNP22 having a K4G substitution, N-terminal PEGylated with PEG2K (PEG2K-GLSGGCFGLKLDRIGSMSGLGC; not fully specified (bridges); ends and bridges not checked; UniProt P23582 105-126, looked up, variant K4G)
resistance to NEP cleavage (in words): only slightly more resistant to NEP cleavage than CNP22

PEG1K-CNP22: CNP22 conjugated at the N-terminus to polydispersed PEG1K
NEP Cleavage (t1/2, min) (pH 7): >160 min

DLRVDTKSRAAWARLLQEHPNARKYKGANKKGLSKGCFGLKLDRIGSMSGLGC (disulfide 37-53) [Analog BM, reference compound]
resistance to NEP cleavage (in words): resistant to NEP degradation

PEG1K-GANRR-CNP22(K4R): GANRR-CNP22, K4R (SEQ ID NO: 36) conjugated at the N-terminus to PEG1K (PEG1K-GANRRGLSRGCFGLKLDRIGSMSGLGC; not fully specified (bridges); ends and bridges not checked)
NEP Cleavage (t1/2, min) (pH 7): >160 min

PEG5K-CNP22: CNP22 conjugated at the N-terminus to polydispersed PEG5K
resistance to NEP cleavage (in words): resistant to NEP degradation over the assay period of 160 minutes
NEP Cleavage (t1/2, min) (pH 7): >>160 min

PEG2K-CNP22: CNP22 conjugated at the N-terminus to polydispersed PEG2K
NEP Cleavage (t1/2, min) (pH 7): >>160 min

PEG20K-CNP22: CNP22 conjugated at the N-terminus to polydispersed PEG20K
NEP Cleavage (t1/2, min) (pH 7): >>160 min

CC[C@H](C)[C@@H]1NC(=O)[C@H](CCCNC(=N)N)NC(=O)[C@H](CC(=O)O)NC(=O)[C@H](CC(C)C)NC(=O)[C@H](CCCCN)NC(=O)[C@H](CC(C)C)NC(=O)[C@H](C(C)(C)C)NC(=O)[C@H](Cc2ccccc2)NC(=O)[C@@H](NC(=O)CNC(=O)[C@H](CCCCN)NC(=O)[C@H](CO)NC(=O)[C@H](CC(C)C)NC(=O)CN)CSSC[C@@H](C(=O)O)NC(=O)CNC(=O)[C@H](CC(C)C)NC(=O)CNC(=O)[C@H](CO)NC(=O)[C@H](CCSC)NC(=O)[C@H](CO)NC(=O)CNC1=O [Analog F] (H-GLSKGCF[Tle]LKLDRIGSMSGLGC-OH; disulfide 6-22)
resistance to cleavage at the Cys6-Phe7 bond relative to wtCNP22: resistance or improved resistance

CC[C@H](C)[C@@H]1NC(=O)[C@H](CCCNC(=N)N)NC(=O)[C@H](CC(=O)O)NC(=O)[C@H](CC(C)C)NC(=O)[C@H](CCCCN)NC(=O)[C@H](CC(C)C)NC(=O)CNC(=O)[C@H](Cc2ccccc2)NC(=O)[C@@H](NC(=O)CNC(=O)[C@H](CCCNC(=N)N)NC(=O)[C@H](CO)NC(=O)[C@H](CC(C)C)NC(=O)CNC(=O)[C@H](CCCNC(=N)N)NC(=O)[C@@H]2CCCN2C(=O)[C@H](CC(N)=O)NC(=O)[C@H](C)NC(=O)CNC(=O)CCOCCOCCOCCOCCOCCOCCOCCOCCOCCOCCOCCOC)CSSC[C@@H](C(=O)O)NC(=O)CNC(=O)[C@H](CC(C)C)NC(=O)CNC(=O)[C@H](CO)NC(=O)[C@H](CCSC)NC(=O)[C@H](CO)NC(=O)CNC1=O [PEO12-GANPR-CNP22(K4R)] ({CH3O(CH2CH2O)11CH2CH2CO}-GANPRGLSRGCFGLKLDRIGSMSGLGC-OH; disulfide 11-27; C-terminus assumed)
resistance to NEP cleavage (in words): same half-life as wtCNP22

— patent publication USRE48267E1, “Variants of C-type natriuretic peptide” (priority 2009, dated 2020)
